From publication PMC6093632 (Science Advances, 2018)

Target: the molecule itself
Experiment: cryo-EM structure

B1: full-length rat TRPV6 (natural protein, UniProt Q9R186 41-767, looked up)
chain: MGWSLPKEKGLILCLWNKFCRWFHRRESWAQSRDEQNLLQQKRIWESPLLLAAKENNVQALIKLLKFEGCEVHQKGAMGETALHIAALYDNLEAAMVLMEAAPELVFEPMTSELYEGQTALHIAVINQNVNLVRALLARGASVSARATGSVFHYRPHNLIYYGEHPLSFAACVGSEEIVRLLIEHGADIRAQDSLGNTVLHILILQPNKTFACQMYNLLLSYDGGDHLKSLELVPNNQGLTPFKLAGVEGNIVMFQHLMQKRKHIQWTYGPLTSTLYDLTEIDSSGDDQSLLELIVTTKKREARQILDQTPVKELVSLKWKRYGRPYFCVLGAIYVLYIICFTMCCVYRPLKPRITNRTNPRDNTLLQQKLLQEAYVTPKDDLRLVGELVSIVGAVIILLVEIPDIFRLGVTRFFGQTILGGPFHVIIVTYAFMVLVTMVMRLTNSDGEVVPMSFALVLGWCNVMYFARGFQMLGPFTIMIQKMIFGDLMRFCWLMAVVILGFASAFYIIFQTEDPDELGHFYDYPMALFSTFELFLTIIDGPANYDVDLPFMYSITYAAFAIIATLLMLNLLIAMMGDTHWRVAHERDELWRAQVVATTVMLERKLPRCLWPRSGICGREYGLGDRWFLRVEDRQDLNRQRIRRYAQAFQQQDDLYSEDLEKDSGEKLEMARPFGAYLSFPTPSVSRSTSRSSTNWDRLRQGALRKDLQGIINRGLEDGEGWEYQI
With B1 the “stoichiometry N” value was 4 subunits.
